Experimental data: PMC9256704 (2022)

Target: T1, recombinant TRIB2 protein (TP301210, OriGene), biotinylated (human, UniProt Q92519 1-343, biotinylated)
T1 chain: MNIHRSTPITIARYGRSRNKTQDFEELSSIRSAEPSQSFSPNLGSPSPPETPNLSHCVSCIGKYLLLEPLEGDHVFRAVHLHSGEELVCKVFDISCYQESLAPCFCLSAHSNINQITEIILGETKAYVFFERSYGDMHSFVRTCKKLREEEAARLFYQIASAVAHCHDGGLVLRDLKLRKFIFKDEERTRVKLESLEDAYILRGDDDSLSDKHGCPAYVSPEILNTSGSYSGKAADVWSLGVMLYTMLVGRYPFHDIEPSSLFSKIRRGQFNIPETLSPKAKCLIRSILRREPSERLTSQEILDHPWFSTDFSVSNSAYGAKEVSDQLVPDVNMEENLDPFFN
Assay: BLI

B1: PKM2 (ab89364, Abcam) (natural protein)
chain: not shown
In the case of B1, the koff is reported as 0.0175 s⁻¹.
